This data set concerns the molecule itself. The data set can be described thus: negative-stain TEM, homomeric self-assembly. The procedure: FIG. 2(a-b). Transmission electron micrographs of degreased I3-01 constructs. […] Images taken at 22,000× magnification.
Samples were prepared for negative stain EM by diluting to 0.05-0.075 mg/mL using a Tris-based buffer, and 6.0 μL was incubated on a glow-discharged, copper, carbon-coated grid for 1 min before quickly immersing the grid in a 60 μL drop of water. The water was blotted off within seconds by Whatman™ No. 1 filter paper, and the grid was immediately dipped into a 6.0 μL drop of stain (2% w/v uranyl formate). The stain was immediately blotted away and within seconds the grid was dipped into another 6.0 μL drop of stain, which was left on the grid for 30 seconds. At the end of this time, the stain was blotted dry and allowed to air dry for 5 minutes prior to imaging. Images were recorded on a FEI Morgagni 268 transmission electron microscope equipped with a Gatan US4000 CCD camera, using Leginon™ software for data collection at a nominal magnification of 22,000× at a defocus range comprised between −1 um and −4 um.

B1: I3-01 H35D (designed binder)
chain: YKDEKMEELFKKHKIVAVLRANSVEEAKKKALAVFLGGVDLIEITFTVPDADTVIKELSFLKEMGAIIGAGTVTSVEQCRKAVESGAEFIVSPHLDEEISQFCKEKGVFYMPGVMTPTELVKAMKLGHTILKLFPGEVVGPQFVKAMKGPFPNVKFVPTGGVNLDNVCEWFKAGVLAVGVGSALVKGTPVEVAEKAKAFVEKIRGCTEQKLISEEDLHHHHHH
notes: One-component (homomeric) icosahedral nanoparticle secreted from HEK293F cells; also called H35D variant; degreased I3-01 construct
Take B1: the binding result is on record as “binds”.

B2: I3-01 'secretion mutations' (H35D/L171Q/S177E/V180N) (designed binder)
chain: YKDEKMEELFKKHKIVAVLRANSVEEAKKKALAVFLGGVDLIEITFTVPDADTVIKELSFLKEMGAIIGAGTVTSVEQCRKAVESGAEFIVSPHLDEEISQFCKEKGVFYMPGVMTPTELVKAMKLGHTILKLFPGEVVGPQFVKAMKGPFPNVKFVPTGGVNLDNVCEWFKAGVQAVGVGEALNKGTPVEVAEKAKAFVEKIRGCTEQKLISEEDLHHHHHH
notes: One-component (homomeric) icosahedral nanoparticle secreted from HEK293F cells; also called H35D/L171Q/S177E/V180N quadruple mutant
On to B2, for which the binding result is listed as “binds”.

The values above are taken from patent US20230075095A1 (University of Washington, published 2023).
